Measured values reported in patent US20260176378A1 (DYAX, published 2026).
Where two headings read alike, the source gives them in different places. Each block holds one binder with its values, some of them ahead of it.

What was measured:
human plasma kallikrein [1] = molecular target: T1, human plasma kallikrein (human, UniProt P03952 20-390; P03952 391-638); experiment: ELISA, biotinylated pKal signal over streptavidin background
T1 construct: two disulfide-linked chains; NP_000883.2; also called pKal; hpKal

human plasma kallikrein [2] = molecular target: T1, human plasma kallikrein; experiment: as above; remark: listed apart in the source

T1 sequence (P03952 20-390 limits assumed, chain 1 of 2): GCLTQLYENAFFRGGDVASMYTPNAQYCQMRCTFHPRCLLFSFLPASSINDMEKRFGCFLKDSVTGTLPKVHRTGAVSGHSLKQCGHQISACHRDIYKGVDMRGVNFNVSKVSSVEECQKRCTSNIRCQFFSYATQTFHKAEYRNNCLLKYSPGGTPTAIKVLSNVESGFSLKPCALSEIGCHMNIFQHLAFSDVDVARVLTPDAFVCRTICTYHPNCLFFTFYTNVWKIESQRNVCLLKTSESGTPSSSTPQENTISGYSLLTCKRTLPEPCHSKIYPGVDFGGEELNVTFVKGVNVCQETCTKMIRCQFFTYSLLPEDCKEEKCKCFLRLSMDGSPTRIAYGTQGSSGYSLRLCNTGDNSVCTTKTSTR
T1 sequence (P03952 391-638 limits assumed, chain 2 of 2): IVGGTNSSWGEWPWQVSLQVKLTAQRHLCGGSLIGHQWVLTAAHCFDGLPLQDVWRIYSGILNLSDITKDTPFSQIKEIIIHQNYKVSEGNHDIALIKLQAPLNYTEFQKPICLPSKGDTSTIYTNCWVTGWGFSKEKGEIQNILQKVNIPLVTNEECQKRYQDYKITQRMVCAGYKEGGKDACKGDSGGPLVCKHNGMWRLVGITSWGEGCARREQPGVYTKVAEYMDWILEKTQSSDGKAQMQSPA

ELISA (T/B) (human plasma kallikrein [1]): 11.1
B1: M35-G04 (Fab, V domains shown)
VH: EVQLLESGGGLVQPGGSLRLSCAASGFTFSYYHMSWVRQAPGKGLEWVSVISPSGGSTKYADSVKGRFTISRDNSKNTLYLQMNSLRAEDTAVYYCARGGSSDYAWGSYRRPYYFDYWGQGTLVTVSS
VL: DIQMTQSPATLSLSPGERATLSCRASQSVSSYLAWYQQKPGQAPRLLIYDASNRATGIPARFSGSGSGTDFTLTISSLEPEDFAVYYCQQRSNWPRGFTFGPGTKVDIK
notes: also called 559A-M35-G04; 559A-M0035-G04

ELISA (T/B) (human plasma kallikrein [1]): 6.2
B2: M145-D01 (Fab, V domains shown)
VH: B1 VH
VL: B1 VL

ELISA (T/B) (human plasma kallikrein [1]): 11.2
B3: M76-D01 (Fab, V domains shown)
VH: EVQLLESGGGLVQPGGSLRLSCAASGFTFSFYAMHWVRQAPGKGLEWVSGIVPSGGRTHYADSVKGRFTISRDNSKNTLYLQMNSLRAEDTAVYYCATDSSGSPNPLFDYWGQGTLVTVSS
VL: DIVMTQTPPSLPVNPGEPASISCRSSQSLSDDGNTYLDWYLQRPGQSPQLLIHTLSYRASGVPDRFSGSGSGTDFTLKISRVEAEDVGVYYCMQGTHWPPTFGQGTKVEIK

ELISA (T/B) (human plasma kallikrein [1]): 33.5
B7: M38-F02 (Fab, V domains shown)
VH: EVQLLESGGGLVQPGGSLRLSCAASGFTFSYYMMVWVRQAPGKGLEWVSYIYSSGGHTVYADSVKGRFTISRDNSKNTLYLQMNSLRAEDTAVYYCARDLFLYDFWSKGAFDIWGQGTMVTVSS
VL: QSVLTQPPSVSVSPGQTASITCSGEKLGDKYVSWYQQKPGQSPSLVICEDSRRPSGIPERFSGSNSGNTATLTISGAQPMDEADYYCQAWDSSTAIFGPGTKVTVL

ELISA (T/B) (human plasma kallikrein [1]): 4.5
B8: M137-E12 (Fab, V domains shown)
VH: EVQLLESGGGLVQPGGSLRLSCAASGFTFSDYRMQWVRQAPGKGLEWVSVIVPSGGNTMYADSVKGRFTISRDNSKNTLYLQMNSLRAEDTAVYYCARGGPGSSIAARRAPTGYYGMDVWGQGTTVTVSS
VL: QSVLIQPPSVSGIPGQRVTISCSGNNSNFGSNTVTWYQQLPGTAPKLLIYSDSRRPSGVPDRFSGSRSDTSASLAISGLQSEDEAEYHCAAWDDSLNGVFGGGTKLTVL

ELISA (T/B) (human plasma kallikrein [1]): 29.9
B9: M142-H08 (antibody, V domains shown)
VH: EVQLLESGGGLVQPGGSLRLSCAASGFTFSAYSMIWVRQAPGKGLEWVSYIRPSGGRTTYADSVKGRFTISRDNSKNTLYLQMNSLRAEDTAVYYCARGGLLLWFRELKSNYFDYWGQGTLVTVSS
VL: DIQMTQSPSSLSAFVGDRVTITCRASQPIDNYLNWYHQKPGKAPKLLIYAASRLQSGVPSRLSGSGFGTDFTLTISSLQPEDFGNYYCQQSYTVPYTFGGGTKVEIR
notes: tested as Fab (Ki,app) and as human IgG (SPR); the IgG is cleaved in HC CDR3 after WFR

ELISA (T/B) (human plasma kallikrein [1]): 28
B15: M41-A11 (Fab, V domains shown)
VH: EVQLLESGGGLVQPGGSLRLSCAASGFTFSHYRMSWVRQAPGKGLEWVSSIYPSGGRTVYADSVKGRFTISRDNSKNTLYLQMNSLRAEDTAVYYCAKDKFEWRLLFRGIGNDAFDIWGQGTMVTVSS
VL: QSVLTQPPSVSVSPGQTASITCSGDKLGDKYTSWYQQRPGQSPVLVIYQDIKRPSGIPERFSGSNSGNTATLTISGTQAMDEADYYCQAWDSPNARVFGSGTKVTVL

ELISA (T/B) (human plasma kallikrein [1]): 2.4
B17: M110-C12 (Fab, V domains shown)
VH: EVQLLESGGGLVQPGGSLRLSCAASGFTFSYYEMDWVRQAPGKGLEWVSGISSSGGHTAYADSVKGRFTISRDNSKNTLYLQMNSLRAEDTATYYCARERRSSSRARYYYGMDVWGQGTTVTVSS
VL: DIQMTQSPLSLSVTPGEPASISCRSSLSLLHSNGYNYLDWYVQRPGQSPQLLMYLSSTRASGVPDRFSGSGSGTDFTLEISRVEAEDVGVYYCMQPLETPPTFGGGTKVEIK

ELISA (T/B) (human plasma kallikrein [1]): 28.8
B19: M29-E09 (Fab, V domains shown)
VH: EVQLLESGGGLVQPGGSLRLSCAASGFTFSWYEMGWVRQAPGKGLEWVSSIYSSGGGTMYADSVKGRFTISRDNSKNTLYLQMNSLRAEDTAVYYCARNPQYSGYDRSLSDGAFDIWGQGTMVTVSS
VL: QYELTQPPSVSVSPGQTATITCSGDNLGNKYNSWYQQKPGQSPLLVIYQDTKRPSAIPERFSGSNSGNTATLTISGTQAMDEADYYCQAWDGNVVFGGGTKLTVL

ELISA (T/B) (human plasma kallikrein [1]): 4
B22: M73-D06 (Fab, V domains shown)
VH: EVQLLESGGGLVQPGGSLRLSCAASGFTFSRYEMYWVRQAPGKGLEWVSSISSSGGPTAYADSVKGRFTISRDNSKNTLYLQMNSLRAEDTAMYYCAKGTPKWELLLRSIYIENAFDIWGQGTMVTVSS
VL: QSELTQPPSASETPGQRVTISCSGSSSNIGSNTVSWFQQLPGSAPRLLIYNDHRRPSGVPDRFSGSKSGTSASLVISGLQSQDEADYYCSAWDDSLNGVVFGGGTKLTVL

The next lines start with the binder.

B4: M7-B04 (Fab, V domains shown)
VH: EVQLLESGGGLVQPGGSLRLSCAASGFTFSWYSMVWVRQAPGKGLEWVSSISPSGGLTNYADSVKGRFTISRDNSKNTLYLQMNSLRAEDTAVYYCARHTAARPFYYYYMDVWGKGTTVTVSS
VL: QSALTQPASVSGSPGQSITISCTGTNSDVGNYNLVSWYQQHPGEAPKLLIYEVNKRPSGVSNRFSGSKSGNTASLTISGLQAEDEADYLCCSYAGNRNFYVFGAGTKVTVL
ELISA (T/B) (human plasma kallikrein [1]): 4.1

B5: M11-E05 (Fab, V domains shown)
VH: EVQLLESGGGLVQPGGSLRLSCAASGFTFSWYTMGWVRQAPGKGLEWVSWIYFGGLTTYADSVKGRFTISRDNSKNTLYLQMNSLRAEDTAVYYCARLGGPLDAFDIWGQGTMVTVSS
VL: DIQMTQSPSSLSASVGDTVTITCRTSQTINNYLNWYQQRPGEAPKVLIYATHTLESGVPSRFSGSGSGTDFTLTIGSLQPEDFATYYCQQSFAFPYTFGQGTKVEIT
ELISA (T/B) (human plasma kallikrein [2]): 41.4

B6: M11-A10 (Fab, V domains shown)
VH: EVQLLESGGGLVQPGGSLRLSCAASGFTFSNYWMMWVRQAPGKGLEWVSGIGSSGGFTSYADSVKGRFTISRDNSKNTLYLQMNSLRAEDTAVYYCAKGSYSDYGVFESWGQGTLVTVSS
VL: DIQMTQSPSSLSASVGDRVAITCRASQSIDTYLNWYQQKPGKAPKLLIYDASNLEIGVPSRFSGSGSGTDFTFIINSLQPEDVATYYCQHYLYAPYSFGQGTKLEIK
ELISA (T/B) (human plasma kallikrein [2]): 25

B10: M10-F09 (Fab, V domains shown)
VH: EVQLLESGGGLVQPGGSLRLSCAASGFTFSNYDMMWVRQAPGKGLEWVSYISPSGGFTRYADSVKGRFTISRDNSKNTLYLQMNSLRAEDTATYYCAKDIYYYNWGPSHYFDSWGQGTLVTVSS
VL: DIQMTQSPSSLSASVGDRVTITCRASQTIDDDLIWYQQKPGRAPKLLIYAASSLQSGVPSRFSGSGSGTDFTLTITSLQPEDFATYYCQQSYNIPRTFGQGTKLESK
ELISA (T/B) (human plasma kallikrein [2]): 4.8

B11: M10-G09 (Fab, V domains shown)
VH: EVQLLESGGGLVQPGGSLRLSCAASGFTFSQYGMQWVRQAPGKGLEWVSSIRSSGGATRYADSVKGRFTISRDNSKNTLYLQMNSLRAEDTAVYYCARDGYYDSSGYPDYWGQGTLVTVSS
VL: DIQMTQSPSSLSASVGDSVTITCRASQSISGYINWYQQKAGKAPKLLIYAASSLQSGVPSRFSGSGSGTHFTLTISSLQPEDFATYYCQQYVSYPFTFGPGTKVDIK
ELISA (T/B) (human plasma kallikrein [2]): 7.1

B12: M29-D09 (Fab, V domains shown)
VH: EVQLLESGGGLVQPGGSLRLSCAASGFTFSWYTMVWVRQAPGKGLEWVSYIYPSGGATFYADSVKGRFTISRDNSKNTLYLQMNSLRAEDTAVYYCAMGSYDYIWGFYSDHWGQGTLVTVSS
VL: QSALTQPPTVSVSPGQTARITCSGNKLGDKYVAWYQQKPGQSPMLVIYQDTKRPSRVSERFSGSNSANTATLSISGTQALDEADYYCQAWDSSIVIFGGGTRLTVL
notes: also called 559A-M29-D09 (sFab); 559A-M0029-D09
ELISA (T/B) (human plasma kallikrein [1]): 47.5

B13: M11-E01 (Fab, V domains shown)
VH: EVQLLESGGGLVQPGGSLRLSCAASGFTFSTYEMYWVRQAPGKGLEWVSGIGSSGGMTMYADSVKGRFTISRDNSKNTLYLQMNSLRAEDTAMYYCAREQPGIAALQFWGQGTLVTVSS
VL: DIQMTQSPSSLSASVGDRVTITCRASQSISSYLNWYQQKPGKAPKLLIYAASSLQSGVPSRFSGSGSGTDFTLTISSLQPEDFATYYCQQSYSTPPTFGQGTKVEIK
ELISA (T/B) (human plasma kallikrein [2]): 11.7

B14: M11-G09 (Fab, V domains shown)
VH: EVQLLESGGGLVQPGGSLRLSCAASGFTFSLYNMTWVRQAPGKGLEWVSYIYPSGGGTHYADSVKGRFTISRDNSKNTLYLQMNSLRAEDTAVYYCARDTGFWSADAFDIWGQGTMVTVSS
VL: DIQMTQSPSSLSASVGDRVTITCRTSQGINHYLNWYQQKPGKAPKILVFAASELQTGVPSRFSGTGSGTSYTLTITSLQPEDVATYYCQQTYTSPYTFGQGTKLEVK
ELISA (T/B) (human plasma kallikrein [2]): 23.6

B16: M11-E04 (Fab, V domains shown)
VH: EVQLLESGGGLVQPGGSLRLSCAASGFTFSMYHMNWVRQAPGKGLEWVSGIVSSGGVTFYADSVKGRFTISRDNSKNTLYLQMNSLRAEDTAVYYCARITTVTTGGAFDIWGQGTMVTVSS
VL: DIQMTQSPSSLSASVGDRVTITCRASQSISIYLTWYQHRPGKAPNLLIYGAATLQTGVPSRFSGSGSGTDFTLTIRGLQPEDFATYYCQQTFSLPRTFGQGTKLEIK
ELISA (T/B) (human plasma kallikrein [2]): 43.2

B18: M27-E05 (Fab, V domains shown)
VH: EVQLLESGGGLVQPGGSLRLSCAASGFTFSWYLMIWVRQAPGKGLEWVSYIYPSGGFTYYADSVKGRFTISRDNSKNTLYLQMNSLRAEDMAVYYCARTEGPLSWGYGMDVWGQGTTVTVSS
VL: not shown
ELISA (T/B) (human plasma kallikrein [1]): 41.3

B20: M10-E06 (Fab, V domains shown)
VH: EVQLLESGGGLVQPGGSLRLSCAASGFTFSLYRMFWVRQAPGKGLEWVSSIWSSGGPTMYADSVKGRFTISRDNSKNTLYLQMNSLRAEDTAVYYCAREYPSTYYFDYWGQGTLVTVSS
VL: DIQMTQSPSSLSASVGDRVTITCRASQSISTYLNWYQQKPGKAPKLLIYGASSLQSGVPSRFSGSGSGTDFTLTISSLQPEDFTIYYCQQSYSDPYTFGQGTKLDIK
ELISA (T/B) (human plasma kallikrein [2]): 32.8

B21: M11-E06 (Fab, V domains shown)
VH: EVQLLESGGGLVQPGGSLRLSCAASGFTFSQYAMHWVRQAPGKGLEWVSSIYPSGGFTLYADSVKGRFTISRDNSKNTLYLQMNSLRAEDTAMYYCARGGWLAGGELLNWGQGTLVTVSS
VL: DIQMTQSPSSLSASIGDRVTISCRASRGIGTYLNWYQQHAGKAPKLLIRAASSLETGVPPRFSGSGSGTDFTLTISSLQSDDFATYYCQESFTNVYNFGQGTKLEIK
ELISA (T/B) (human plasma kallikrein [2]): 12.6
